From patent US20160289685

Legend:
[1] = biological target: Recombinant human STAT1α (OriGene Technologies, Inc.) (UniProt P42224)
[2] = biological target: T1, Recombinant human STAT1α (OriGene Technologies, Inc.), P42224
T1 chain: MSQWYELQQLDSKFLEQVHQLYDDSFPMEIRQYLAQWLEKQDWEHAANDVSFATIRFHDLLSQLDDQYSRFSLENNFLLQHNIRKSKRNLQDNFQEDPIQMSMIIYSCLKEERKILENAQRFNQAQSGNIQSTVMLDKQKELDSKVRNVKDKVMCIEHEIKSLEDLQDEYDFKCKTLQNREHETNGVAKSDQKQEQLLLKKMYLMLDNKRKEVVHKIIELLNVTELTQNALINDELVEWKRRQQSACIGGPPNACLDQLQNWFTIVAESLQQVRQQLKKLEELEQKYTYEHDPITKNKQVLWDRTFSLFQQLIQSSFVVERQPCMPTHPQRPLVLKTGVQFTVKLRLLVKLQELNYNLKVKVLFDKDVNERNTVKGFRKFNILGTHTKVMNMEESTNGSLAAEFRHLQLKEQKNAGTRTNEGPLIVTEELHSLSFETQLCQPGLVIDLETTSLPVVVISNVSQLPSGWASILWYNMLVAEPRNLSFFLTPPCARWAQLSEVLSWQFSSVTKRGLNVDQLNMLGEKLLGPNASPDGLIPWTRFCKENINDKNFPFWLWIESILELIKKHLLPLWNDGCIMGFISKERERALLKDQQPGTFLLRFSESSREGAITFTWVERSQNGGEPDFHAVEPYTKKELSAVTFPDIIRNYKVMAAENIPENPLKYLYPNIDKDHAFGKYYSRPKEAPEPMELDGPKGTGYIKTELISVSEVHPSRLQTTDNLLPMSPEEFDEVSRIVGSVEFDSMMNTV

Recombinant human PARP9 (BPS Bioscience Inc.)
ADP-ribosylation (protein ribosylation assay) [1]: PARP9 did not ADP-ribosylate STAT1α

B1: Recombinant human PARP14 (BPS Bioscience Inc.) (protein)
chain: KEYQELNELQKKLNINISLDHKRPLIKVLGISRDVMQARDEIEAMIKRVRLAKEQESRADCISEFIEWQYNDNNTSHCFNKMTNLKLEDARREKKKTVDVKINHRHYTVNLNTYTATDTKGHSLSVQRLTKSKVDIPAHWSDMKQQNFCVVELLPSDPEYNTVASKFNQTCSHFRIEKIERIQNPDLWNSYQAKKKTMDAKNGQTMNEKQLFHGTDAGSVPHVNRNGFNRSYAGKNAVAYGKGTYFAVNANYSANDTYSRPDANGRKHVYYVRVLTGIYTHGNHSLIVPPSKNPQNPTDLYDTVTDNVHHPSLFVAFYDYQAYPEYLITFRK
ADP-ribosylation (protein ribosylation assay, Western blot with Streptavidin-HRP) [2]: Recombinant PARP14 protein induced ADP-ribosylation of PARP14 itself, PARP9, and STAT1α | mono-ADP-ribosylation sites by LC-MS/MS [2]: Glu657 and Glu705 of STAT1α were mono-ADP-ribosylated by PARP14
